Assay results as given in US20120122239A1.

Experiments:
[1] = target: human pro B-type natriuretic peptide (HyTest, Turku, Finland; Catalog No. 8PRO8) (human); assay: sandwich CMIA, capture 15F11, analyte 0.0 pM (blank)
[2] = target: human NT-pro B-type natriuretic peptide (HyTest, Turku, Finland; Catalog No. 8NT1) (human); assay: as above
[3] = target: glycosylated human proBNP (HyTest, Turku, Finland; Catalog No. 8GOB2) (human); assay: as above
[4] = target: human pro B-type natriuretic peptide (HyTest, Turku, Finland; Catalog No. 8PRO8) (human); assay: sandwich CMIA, capture 15C4, analyte 288.7 pM
[5] = target: human NT-pro B-type natriuretic peptide (HyTest, Turku, Finland; Catalog No. 8NT1) (human); assay: sandwich CMIA, capture 15C4, analyte 288.7 pM
[6] = target: glycosylated human proBNP (HyTest, Turku, Finland; Catalog No. 8GOB2) (human); assay: sandwich CMIA, capture 15C4, analyte 288.7 pM
[7] = target: human pro B-type natriuretic peptide (HyTest, Turku, Finland; Catalog No. 8PRO8) (human); assay: sandwich CMIA, capture 15F11, analyte 43.3 pM
[8] = target: human NT-pro B-type natriuretic peptide (HyTest, Turku, Finland; Catalog No. 8NT1) (human); assay: sandwich CMIA, capture 15F11, analyte 43.3 pM
[9] = target: glycosylated human proBNP (HyTest, Turku, Finland; Catalog No. 8GOB2) (human); assay: sandwich CMIA, capture 15F11, analyte 43.3 pM
[10] = target: human pro B-type natriuretic peptide (HyTest, Turku, Finland; Catalog No. 8PRO8) (human); assay: sandwich CMIA, capture 15F11, analyte 86.6 pM
[11] = target: human NT-pro B-type natriuretic peptide (HyTest, Turku, Finland; Catalog No. 8NT1) (human); assay: sandwich CMIA, capture 15F11, analyte 86.6 pM
[12] = target: glycosylated human proBNP (HyTest, Turku, Finland; Catalog No. 8GOB2) (human); assay: sandwich CMIA, capture 15F11, analyte 86.6 pM
[13] = target: human pro B-type natriuretic peptide (HyTest, Turku, Finland; Catalog No. 8PRO8) (human); assay: sandwich CMIA, capture 15C4, analyte 86.6 pM
[14] = target: human NT-pro B-type natriuretic peptide (HyTest, Turku, Finland; Catalog No. 8NT1) (human); assay: sandwich CMIA, capture 15C4, analyte 86.6 pM
[15] = target: glycosylated human proBNP (HyTest, Turku, Finland; Catalog No. 8GOB2) (human); assay: sandwich CMIA, capture 15C4, analyte 86.6 pM
[16] = target: human pro B-type natriuretic peptide (HyTest, Turku, Finland; Catalog No. 8PRO8) (human); assay: sandwich CMIA, capture 15C4, analyte 577.4 pM
[17] = target: human NT-pro B-type natriuretic peptide (HyTest, Turku, Finland; Catalog No. 8NT1) (human); assay: sandwich CMIA, capture 15C4, analyte 577.4 pM
[18] = target: glycosylated human proBNP (HyTest, Turku, Finland; Catalog No. 8GOB2) (human); assay: sandwich CMIA, capture 15C4, analyte 577.4 pM
[19] = target: human pro B-type natriuretic peptide (HyTest, Turku, Finland; Catalog No. 8PRO8) (human); assay: sandwich CMIA, capture 15F11, analyte 577.4 pM
[20] = target: human NT-pro B-type natriuretic peptide (HyTest, Turku, Finland; Catalog No. 8NT1) (human); assay: sandwich CMIA, capture 15F11, analyte 577.4 pM
[21] = target: glycosylated human proBNP (HyTest, Turku, Finland; Catalog No. 8GOB2) (human); assay: sandwich CMIA, capture 15F11, analyte 577.4 pM
[22] = target: human pro B-type natriuretic peptide (HyTest, Turku, Finland; Catalog No. 8PRO8) (human); assay: sandwich CMIA, capture 15F11, analyte 288.7 pM
[23] = target: human NT-pro B-type natriuretic peptide (HyTest, Turku, Finland; Catalog No. 8NT1) (human); assay: sandwich CMIA, capture 15F11, analyte 288.7 pM
[24] = target: glycosylated human proBNP (HyTest, Turku, Finland; Catalog No. 8GOB2) (human); assay: sandwich CMIA, capture 15F11, analyte 288.7 pM
[25] = target: human pro B-type natriuretic peptide (HyTest, Turku, Finland; Catalog No. 8PRO8) (human); assay: sandwich CMIA, capture 15C4, analyte 43.3 pM
[26] = target: human NT-pro B-type natriuretic peptide (HyTest, Turku, Finland; Catalog No. 8NT1) (human); assay: sandwich CMIA, capture 15C4, analyte 43.3 pM
[27] = target: glycosylated human proBNP (HyTest, Turku, Finland; Catalog No. 8GOB2) (human); assay: sandwich CMIA, capture 15C4, analyte 43.3 pM
[28] = target: human pro B-type natriuretic peptide (HyTest, Turku, Finland; Catalog No. 8PRO8) (human); assay: sandwich CMIA, capture 15C4, analyte 0.0 pM (blank)
[29] = target: human NT-pro B-type natriuretic peptide (HyTest, Turku, Finland; Catalog No. 8NT1) (human); assay: as above
[30] = target: glycosylated human proBNP (HyTest, Turku, Finland; Catalog No. 8GOB2) (human); assay: as above

Chain of human NT-pro B-type natriuretic peptide (HyTest, Turku, Finland; Catalog No. 8NT1) (human) (chain, as listed by the source): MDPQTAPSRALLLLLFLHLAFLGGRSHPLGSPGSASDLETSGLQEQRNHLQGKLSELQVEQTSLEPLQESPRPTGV
Chain of glycosylated human proBNP (HyTest, Turku, Finland; Catalog No. 8GOB2) (human) (chain, as listed by the source): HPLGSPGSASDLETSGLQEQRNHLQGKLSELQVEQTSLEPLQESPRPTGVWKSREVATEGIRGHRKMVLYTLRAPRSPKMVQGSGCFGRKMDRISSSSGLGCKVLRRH

| Substance | Analyte rlus [1] | Analyte rlus [2] | Analyte rlus [3] | Analyte rlus [4] | Analyte rlus [5] | Analyte rlus [6] | Analyte rlus [7] | Analyte rlus [8] | Analyte rlus [9] | Analyte rlus [10] | Analyte rlus [11] | Analyte rlus [12] | Analyte rlus [13] | Analyte rlus [14] | Analyte rlus [15] | Analyte rlus [16] | Analyte rlus [17] | Analyte rlus [18] | Analyte rlus [19] | Analyte rlus [20] | also measured |
| --- | --- | --- | --- | --- | --- | --- | --- | --- | --- | --- | --- | --- | --- | --- | --- | --- | --- | --- | --- | --- | --- |
| anti-human NT-proBNP/anti-human proBNP labeled monoclonal antibody 7B5 (HyTest, Turku, Finland) | 615 rlus | 615 rlus | 615 rlus | 607 rlus | 1180 rlus | 672 rlus | 589 rlus | 615 rlus | 528 rlus | 529 rlus | 549 rlus | 505 rlus | 641 rlus | 719 rlus | 581 rlus | 726 rlus | 2180 rlus | 800 rlus | 612 rlus | 534 rlus | Analyte rlus [21]: 600 rlus; Analyte rlus [22]: 556 rlus; Analyte rlus [23]: 593 rlus; Analyte rlus [24]: 525 rlus; Analyte rlus [25]: 686 rlus; Analyte rlus [26]: 750 rlus; Analyte rlus [27]: 606 rlus; Analyte rlus [28]: 590 rlus; Analyte rlus [29]: 590 rlus; Analyte rlus [30]: 590 rlus |
| anti-human NT proBNP/anti-human proBNP monoclonal antibody 15F11 (HyTest, Turku, Finland) | 912 rlus | 912 rlus | 912 rlus | 945 rlus | 1140 rlus | 930 rlus | 857 rlus | 904 rlus | 899 rlus | 963 rlus | 929 rlus | 886 rlus | 1040 rlus | 998 rlus | 835 rlus | 917 rlus | 1370 rlus | 859 rlus | 897 rlus | 1010 rlus | Analyte rlus [21]: 953 rlus; Analyte rlus [22]: 949 rlus; Analyte rlus [23]: 977 rlus; Analyte rlus [24]: 925 rlus; Analyte rlus [25]: 851 rlus; Analyte rlus [26]: 883 rlus; Analyte rlus [27]: 1010 rlus; Analyte rlus [28]: 847 rlus; Analyte rlus [29]: 847 rlus; Analyte rlus [30]: 847 rlus |
